Article PMC6093710, “The Peptidisc, a simple method for stabilizing membrane proteins in detergent-free solution” (eLife, 2018)
No end group written: not given here.

Experiments:
Details in all cases: both partners purified
[1] = biological target: T1, MalFGK2 ABC transporter (maltose transporter), His-tagged (UniProt P02916 1-514; P68183 1-296; P68187 1-371); experiment: SDS-PAGE densitometry of gel-filtered peptidiscs; peptidiscs made on-column, one more gel filtration to remove free NSPr; 15% SDS-PAGE, Coomassie fluorescence of the NSPr band against a standard curve of NSPr; triplicate gels
T1 construct: also called MalGFK2

[2] = biological target: Photosynthetic bacterial reaction center (BRC) from Rhodobacter sphaeroides, His-tagged (Rhodobacter sphaeroides, UniProt P0C0Y8 1-282; P0C0Y9 1-308; P0C0Y7 1-260); experiment: as above
[3] = biological target: T2, FhuA receptor, His-tagged (UniProt P06971 34-747); experiment: streptavidin blot quantification of biotinylated peptide in gel-filtered peptidiscs; FhuA reconstituted with NSPrbio; western blot with streptavidin-Alexa 680, against a standard curve
T2 construct: also called FhuA transporter
T2 sequence (looked up): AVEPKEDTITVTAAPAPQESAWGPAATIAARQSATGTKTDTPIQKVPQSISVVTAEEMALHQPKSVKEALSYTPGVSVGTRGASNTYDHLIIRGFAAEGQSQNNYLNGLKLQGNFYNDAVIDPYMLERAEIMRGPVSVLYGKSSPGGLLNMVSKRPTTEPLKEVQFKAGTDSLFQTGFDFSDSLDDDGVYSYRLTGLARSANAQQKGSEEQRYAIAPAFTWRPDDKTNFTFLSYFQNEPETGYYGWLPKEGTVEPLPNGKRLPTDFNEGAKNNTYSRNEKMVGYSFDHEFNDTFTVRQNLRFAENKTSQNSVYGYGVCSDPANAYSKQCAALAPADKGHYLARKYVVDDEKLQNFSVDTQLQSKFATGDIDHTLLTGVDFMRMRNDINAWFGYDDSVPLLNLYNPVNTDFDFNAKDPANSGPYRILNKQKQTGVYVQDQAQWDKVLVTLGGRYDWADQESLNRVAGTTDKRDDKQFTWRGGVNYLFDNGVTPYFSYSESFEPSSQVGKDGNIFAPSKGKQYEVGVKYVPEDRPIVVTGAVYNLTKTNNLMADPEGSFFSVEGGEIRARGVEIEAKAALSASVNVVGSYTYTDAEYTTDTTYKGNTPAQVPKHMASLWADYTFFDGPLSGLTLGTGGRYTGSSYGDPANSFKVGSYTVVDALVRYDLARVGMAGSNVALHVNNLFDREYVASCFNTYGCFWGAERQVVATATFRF

[4] = biological target: T3, Colicin M, His-tagged (UniProt P05820 1-271); experiment: native gel or EMSA; about 2 µg FhuA in peptidisc incubated with TonB23-329 (2 µg) or ColM (5 µg), with or without ferricrocin, 5 min at room temperature; CN-PAGE, Coomassie; free TonB and ColM do not migrate
T3 construct: colicin M; Construct as in Mills et al., 2014; also called ColM; source: E. coli BW25113, plasmid pMLD189, purified
T3 sequence: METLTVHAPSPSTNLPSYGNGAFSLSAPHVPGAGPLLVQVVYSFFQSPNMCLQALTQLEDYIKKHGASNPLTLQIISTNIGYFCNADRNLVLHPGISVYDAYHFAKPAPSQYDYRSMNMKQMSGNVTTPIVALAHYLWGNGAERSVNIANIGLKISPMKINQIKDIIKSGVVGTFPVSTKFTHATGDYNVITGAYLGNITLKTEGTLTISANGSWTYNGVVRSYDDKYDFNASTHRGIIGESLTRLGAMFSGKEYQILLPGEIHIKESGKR

T1 sequence (P02916 whole entry, chain 1 of 3): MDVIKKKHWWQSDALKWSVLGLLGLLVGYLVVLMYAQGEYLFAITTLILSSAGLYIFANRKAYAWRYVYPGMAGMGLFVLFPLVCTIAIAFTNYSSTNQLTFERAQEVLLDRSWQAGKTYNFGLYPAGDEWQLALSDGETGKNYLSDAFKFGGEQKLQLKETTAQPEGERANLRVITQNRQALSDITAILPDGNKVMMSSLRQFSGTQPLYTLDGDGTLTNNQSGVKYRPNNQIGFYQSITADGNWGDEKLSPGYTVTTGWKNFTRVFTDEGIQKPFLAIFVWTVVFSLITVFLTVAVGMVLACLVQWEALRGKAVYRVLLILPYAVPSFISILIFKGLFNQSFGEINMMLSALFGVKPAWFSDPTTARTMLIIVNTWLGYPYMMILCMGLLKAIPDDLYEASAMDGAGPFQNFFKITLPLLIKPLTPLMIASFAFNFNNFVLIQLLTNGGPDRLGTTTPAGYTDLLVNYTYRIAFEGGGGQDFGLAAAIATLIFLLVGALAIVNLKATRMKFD
T1 sequence (P68183 whole entry, chain 2 of 3): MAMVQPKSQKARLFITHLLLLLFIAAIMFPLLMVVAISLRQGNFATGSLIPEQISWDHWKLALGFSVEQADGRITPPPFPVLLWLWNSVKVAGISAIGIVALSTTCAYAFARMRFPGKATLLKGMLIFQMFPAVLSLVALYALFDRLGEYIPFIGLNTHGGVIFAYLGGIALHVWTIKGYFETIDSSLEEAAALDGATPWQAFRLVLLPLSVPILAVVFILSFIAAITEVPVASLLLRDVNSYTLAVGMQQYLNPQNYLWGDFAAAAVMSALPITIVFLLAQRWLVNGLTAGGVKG
T1 sequence (P68187 whole entry, chain 3 of 3): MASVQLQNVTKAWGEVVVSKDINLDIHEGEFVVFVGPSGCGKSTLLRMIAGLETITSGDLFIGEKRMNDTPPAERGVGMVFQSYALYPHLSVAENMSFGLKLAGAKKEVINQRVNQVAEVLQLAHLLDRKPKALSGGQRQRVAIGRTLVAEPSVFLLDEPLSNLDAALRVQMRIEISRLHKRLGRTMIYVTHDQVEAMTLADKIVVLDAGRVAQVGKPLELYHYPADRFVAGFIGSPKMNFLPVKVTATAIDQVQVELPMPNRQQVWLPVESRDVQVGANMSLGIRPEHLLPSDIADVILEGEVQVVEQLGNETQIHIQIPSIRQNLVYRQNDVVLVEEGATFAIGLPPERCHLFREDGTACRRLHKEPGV

B1: Peptide NSPr (reversed nanodisc scaffold peptide, peptidisc scaffold) (peptide)
peptide: FAEKFKEAVKDYFAKFWDPAAEKLKEAVKDYFAKLWD
notes: also called NSP (used loosely in some legends and methods); source: synthetic peptide; bought: A+ peptide Co. Ltd. and Genscript (purity >80%)
stoichiometry N [1]: 10 NSPr/disc | stoichiometry N [2]: 9 NSPr/disc

B2: Peptide NSPrbio (NSPr labelled with a biotin group) (peptide)
peptide: FAEKFKEAVKDYFAKFWDPAAEKLKEAVKDYFAKLWD
modifications: also: biotin group, position not given here
notes: source: synthetic peptide; bought: KareBay
stoichiometry N [3]: 10 NSPr/disc

B3: FhuA reconstituted in peptidisc (FhuA-NSPr) (complex)
chain: AVEPKEDTITVTAAPAPQESAWGPAATIAARQSATGTKTDTPIQKVPQSISVVTAEEMALHQPKSVKEALSYTPGVSVGTRGASNTYDHLIIRGFAAEGQSQNNYLNGLKLQGNFYNDAVIDPYMLERAEIMRGPVSVLYGKSSPGGLLNMVSKRPTTEPLKEVQFKAGTDSLFQTGFDFSDSLDDDGVYSYRLTGLARSANAQQKGSEEQRYAIAPAFTWRPDDKTNFTFLSYFQNEPETGYYGWLPKEGTVEPLPNGKRLPTDFNEGAKNNTYSRNEKMVGYSFDHEFNDTFTVRQNLRFAENKTSQNSVYGYGVCSDPANAYSKQCAALAPADKGHYLARKYVVDDEKLQNFSVDTQLQSKFATGDIDHTLLTGVDFMRMRNDINAWFGYDDSVPLLNLYNPVNTDFDFNAKDPANSGPYRILNKQKQTGVYVQDQAQWDKVLVTLGGRYDWADQESLNRVAGTTDKRDDKQFTWRGGVNYLFDNGVTPYFSYSESFEPSSQVGKDGNIFAPSKGKQYEVGVKYVPEDRPIVVTGAVYNLTKTNNLMADPEGSFFSVEGGEIRARGVEIEAKAALSASVNVVGSYTYTDAEYTTDTTYKGNTPAQVPKHMASLWADYTFFDGPLSGLTLGTGGRYTGSSYGDPANSFKVGSYTVVDALVRYDLARVGMAGSNVALHVNNLFDREYVASCFNTYGCFWGAERQVVATATFRF
peptide: FAEKFKEAVKDYFAKFWDPAAEKLKEAVKDYFAKLWD
notes: also called FhuA-peptidisc; FhuA peptidisc; copies: 1 + 10
binding result [4]: binds
